{"source": "paper PMC11822739", "key": {"[1]": {"biological_target": "bacteriophage Qβ virus-like particles (bacteriophage Qβ)", "test": "SEC-MALS; SEC-UV-MALS-RI; 7.8 x 300 mm 1000 Å 3 μm column; 20 mM phosphate, 276 mM NaCl, 5.4 mM KCl, pH 7.4 (2x dPBS); flow rates 0.29 and 1.15 mL/min; 20 μL of 2 mg/mL Qβ, 14.4 μL of 0.67 mg/mL HBV VLPs with residual CP149 dimer; dn/dc 0.185 mL/mg"}, "[2]": {"biological_target": "bovine thyroglobulin (bovine) (UniProt P01267)", "test": "SEC + native MS"}, "[3]": {"biological_target": "bovine thyroglobulin (bovine) (UniProt P01267)", "test": "SEC + native MS", "remark": "listed apart in the source"}, "[4]": {"biological_target": "HBV truncated core protein CP149 dimer (hepatitis B virus)", "test": "SEC-MALS; SEC-UV-MALS-RI; 7.8 x 300 mm 1000 Å 3 μm column; 20 mM phosphate, 276 mM NaCl, 5.4 mM KCl, pH 7.4 (2x dPBS); flow rates 0.29 and 1.15 mL/min; 20 μL of 2 mg/mL Qβ, 14.4 μL of 0.67 mg/mL HBV VLPs with residual CP149 dimer; dn/dc 0.185 mL/mg"}, "[5]": {"biological_target": "HBV truncated core protein CP149 dimer (hepatitis B virus)", "test": "SEC + native MS"}}, "note": "Values joined by “and” are separate entries in the source; they are usually repeats but may differ in a detail not shown here. Identical values can stand only once. Like-named read-outs stand apart in the source and are kept apart here.", "data": [{"substance": "bacteriophage Qβ virus-like particles (complex)", "values": [{"measurement": "stoichiometry N (x the molar mass of peak 3)", "setting": "[1]", "result": "4 and 2"}]}, {"substance": "bovine thyroglobulin, P01267 20-2769", "values": [{"measurement": "stoichiometry N", "setting": "[2]", "result": "4 and 3"}, {"measurement": "stoichiometry N", "setting": "[3]", "result": 2}]}, {"substance": "HBV truncated core protein CP149 dimer (domain or fragment)", "values": [{"measurement": "stoichiometry N", "setting": "[4]", "result": "120 CP dimers and 90 CP dimers"}, {"measurement": "stoichiometry N", "setting": "[5]", "result": "120 CP dimers and 90 CP dimers"}]}]}
